In patent publication US20250339531A1 (FRED HUTCHINSON CANCER CENTER, published 2025):

Assays:
3×MYC-STAT1-S727E = target: T1, 3×MYC-STAT1-S727E (UniProt P42224 1-750); assay: anti-FLAG IP of in vitro translated proteins, without JAK1 treatment, western
T1 construct: In vitro translated in rabbit reticulocyte lysate; also called phospho-mimic STAT1-S727E; not shown: 3×MYC tag
T1 sequence (looked up): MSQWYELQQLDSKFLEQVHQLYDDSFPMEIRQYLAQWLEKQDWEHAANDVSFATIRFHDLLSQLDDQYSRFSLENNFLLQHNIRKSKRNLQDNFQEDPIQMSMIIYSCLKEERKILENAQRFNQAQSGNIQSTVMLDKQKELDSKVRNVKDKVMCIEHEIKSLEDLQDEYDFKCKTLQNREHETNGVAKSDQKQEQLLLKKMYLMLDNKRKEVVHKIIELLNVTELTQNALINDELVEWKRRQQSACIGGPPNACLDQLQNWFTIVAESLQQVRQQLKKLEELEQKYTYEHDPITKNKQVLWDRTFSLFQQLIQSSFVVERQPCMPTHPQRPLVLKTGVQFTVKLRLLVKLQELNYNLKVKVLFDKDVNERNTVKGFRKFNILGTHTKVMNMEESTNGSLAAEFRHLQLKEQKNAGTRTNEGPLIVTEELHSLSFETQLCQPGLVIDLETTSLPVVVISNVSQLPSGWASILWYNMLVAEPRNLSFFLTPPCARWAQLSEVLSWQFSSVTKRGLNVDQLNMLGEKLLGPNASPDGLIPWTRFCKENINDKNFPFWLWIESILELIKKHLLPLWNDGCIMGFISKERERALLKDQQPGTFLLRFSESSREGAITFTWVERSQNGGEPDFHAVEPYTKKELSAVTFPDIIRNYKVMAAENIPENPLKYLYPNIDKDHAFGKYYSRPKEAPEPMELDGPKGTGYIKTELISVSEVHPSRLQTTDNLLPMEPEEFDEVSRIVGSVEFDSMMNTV

[1] = target: T2, Cyclin-dependent kinase 4 (Homo sapiens, UniProt P11802 2-303); assay: anti-FLAG co-IP LC-MS, exp 3, +IFNg +Dox
T2 construct: also called CDK4
T2 sequence (P11802 2-303 limits assumed): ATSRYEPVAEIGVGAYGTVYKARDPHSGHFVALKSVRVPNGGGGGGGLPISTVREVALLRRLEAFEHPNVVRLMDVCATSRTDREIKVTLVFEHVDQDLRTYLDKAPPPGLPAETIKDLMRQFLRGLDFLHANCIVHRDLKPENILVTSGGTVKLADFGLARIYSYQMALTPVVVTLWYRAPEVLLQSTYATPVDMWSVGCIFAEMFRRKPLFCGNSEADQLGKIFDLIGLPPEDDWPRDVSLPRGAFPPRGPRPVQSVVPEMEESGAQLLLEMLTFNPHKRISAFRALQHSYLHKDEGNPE

B1: i3XFLAG-NLS-CTDaa154-424 (other)
chain: MDYKDHDGDYKDHDIDYKDDDDKPPKRMRREPKKKRKVGRAPAQAGGLCSAAPGGGHPAPSWVAFAHTGAWGTGLPAPHVPCAPGALPQGAFVSQAARAAPALQPSQAAPAEGISQPAPARGDFAYAAPAPPDGALSHPQAPRWPPHPGKSREDRDPQRDGLPGPCAVAQPGPAQAGPQGQGVLAPPTSQGSPWWGWGRGPQVAGAAWEPQAGAAPPPQPAPPDASASARQGQMQGIPAPSQALQEPAPWSALPCGLLLDELLASPEFLQQAQPLLETEAPGELEASEEAASLEAPLSEEEYRALLEEL
notes: Doxycycline-induced in MB135 cells for co-IP; also called longCTD; iDUX4-CTD
binding result (3×MYC-STAT1-S727E): no binding
PSMs [1]: 1 PSMs
